The RNAGym collection of RNA variant scans (doi:10.7554/elife.80360)

B1: CPEB3 Ribozyme (parent)
chain: GGGGGCCACAGCAGAAGCGUUCACGUCGCGGCCCCUGUCAGAUUCUGGUGAAUCUGCGAAUUCUGCUGU

Variants of: B1
Assay: self-cleavage, relative activity (ratio to wild type); higher = more cleavage; co-transcriptional

Variant | self-cleavage
C24U U53G | 0.482
C24U U53A | 0.64
C24U A51U | 0.785
C24U A51G | 0.774
C24U C32U | 0.805
C24A C35U | 0.476
C24A C35A | 0.185
C24G G56C | 0.245
G25U G37A | 0.156
G25U G37U | 0.103
C24A G30C | 0.159
C24A A42C | 0.629
C24A A42U | 0.66
A23U U55G | 0.908
A23U U55A | 0.877
A23G A51C | 0.914
A23G A51G | 0.962
C24U G58A | 0.516
G25C G65A | 0.216
C24A G37U | 0.231
G25A C54U | 0.248
G25C G37U | 0.156
G25C G41U | 0.144
C24A G50U | 0.722

Variant | self-cleavage
G25U G41C | 0.103
G25U G41U | 0.173
C24G G58U | 0.387
G25C U49C | 0.185
C24A C27U | 0.168
A23G U26C | 1.03
A23G U26G | 0.788
G25A G47U | 0.198
G25A G47C | 0.217
A23U U61C | 0.895
A23C U61C | 0.689
G25A C32A | 0.22
A23U G58C | 1.02
A23U G58U | 1.01
A23U G58A | 1.02
G25U C39A | 0.137
C24A U49G | 0.686
C24A U49C | 0.74
C24G G47C | 0.502
C24G U38A | 0.177
A23G G56A | 0.953
A23G U61G | 0.734
A23G U61A | 0.867
G25U C66A | 0.133

Variant | self-cleavage
G25U C66G | 0.187
A23G C39U | 0.86
G25U G28U | 0.145
C24G G37U | 0.278
C24A U61A | 0.452
C24A U61G | 0.347
C24A U67C | 0.713
C24U A60U | 0.299
C24U A60G | 0.464
C24U G25U | 0.146
G25U G47A | 0.188
G25U G47U | 0.148
A23U G28A | 0.226
C24A C34U | 0.803
A23U G65U | 0.811
A23U A42G | 0.978
A23U A42C | 0.992
A23U A42U | 1
C24G C35A | 0.167
G25A U62G | 0.16
A23U U38G | 0.206
A23U U38A | 0.95
A23U U38C | 0.96
G25A A51C | 0.209

Variant | self-cleavage
G25C C34U | 0.219
C24U A52U | 0.81
C24U A52G | 0.819
C24A G31A | 0.372
C24A C57A | 0.188
G25C U43A | 0.139
C24G A42C | 0.385
G25C G28C | 0.153
A23U A51G | 0.954
A23G C34G | 0.243
G25C C32U | 0.179
G25A G48C | 0.218
A23C U55G | 0.708
G25C U64C | 0.181
G25C U64G | 0.155
G25C A51U | 0.152
G25C U61C | 0.0705
G25C U61A | 0.193
C24G G25U | 0.104
G25C G48C | 0.147
G25U A42G | 0.129
C24G C66U | 0.502
C24U U38G | 0.166
C24G G31U | 0.215

Variant | self-cleavage
C24U C45U | 0.829
C24U A42C | 0.673
A23C U62A | 0.755
C24U U49A | 0.865
C24U U49C | 0.84
C24G U44G | 0.308
G25U U38C | 0.13
G25U U38A | 0.168
G25U A60C | 0.132
G25U A60G | 0.229
G25U A60U | 0.13
G25U C45G | 0.133
G25A G50A | 0.195
G25A G50U | 0.267
G25A G50C | 0.28
C24U G68A | 0.919
C24A G68C | 0.825
A23U U64C | 0.905
C24U G37A | 0.167
C24U G37C | 0.223
C24A G47C | 0.765
C24A G47U | 0.754
C24U U26G | 0.448
C24U U26A | 0.257

Variant | self-cleavage
C24U U26C | 0.626
C24U A59U | 0.414
G25C C63G | 0.176
G25C C63A | 0.235
C24A U26C | 0.507
C24A C54G | 0.549
C24A C54A | 0.516
G25A A40G | 0.172
C24U U62G | 0.386
C24G C32A | 0.224
G25C U67C | 0.115
C24U G28U | 0.214
C24U G28C | 0.191
C24U G28A | 0.174
C24A A59C | 0.32
C24U U64G | 0.466
A23U C66A | 0.886
C24U U46G | 0.879
G25U G56U | 0.134
G25U G56A | 0.171
G25U G56C | 0.158
A23G G58U | 0.972
A23G G58A | 0.991
C24G A51U | 0.353

Variant | self-cleavage
G25U C35U | 0.139
G25U C29U | 0.206
A23G C32G | 0.337
C24G U64A | 0.325
G25C C35G | 0.124
A23G A40U | 0.665
A23C U69G | 1.02
G25C U46C | 0.218
C24A U64C | 0.471
C24A U64G | 0.508
G25A G41A | 0.174
C24A G65C | 0.245
C24A G65A | 0.441
C24A G65U | 0.303
G25A C35A | 0.21
G25A G56C | 0.213
G25A G56A | 0.154
G25U G68A | 0.204
A23G A42C | 0.911
A23G A42U | 0.862
A23G A42G | 0.867
C24U A40C | 0.228
C24U U36C | 0.37
C24U U36A | 0.181

Variant | self-cleavage
C24U G50U | 0.852
A23G U46A | 1.01
A23G U46G | 1.01
C24U G30C | 0.152
A23G C35U | 0.935
C24A A40U | 0.383
A23G C45A | 0.955
C24A U69C | 0.972
G25A G65U | 0.134
G25A G65C | 0.178
C24A C32G | 0.234
A23U U43G | 0.884
C24G G68C | 0.578
C24G A60G | 0.264
C24G G28U | 0.13
C24G G28C | 0.224
C24G U69G | 0.63
C24G U69A | 0.509
A23C U67G | 0.968
G25A C45G | 0.142
G25A C45U | 0.132
C24G C39A | 0.214
C24G C39G | 0.324
G25U G30U | 0.162

Variant | self-cleavage
G25A G28A | 0.131
G25A G28U | 0.132
A23G U53G | 0.85
A23C U64A | 0.833
C24G A40U | 0.14
G25U G58U | 0.186
G25C G31A | 0.217
A23U C57G | 0.358
A23G C57A | 0.394
G25U A59G | 0.174
C24U G65C | 0.353
G25A A60C | 0.142
C24U U55C | 0.391
C24U U55G | 0.367
C24U U55A | 0.651
A23G C27G | 0.175
C24A U55C | 0.434
C24A U55A | 0.617
C24U C54G | 0.586
G25C U44C | 0.144
G25C U44G | 0.139
C24A A52C | 0.634
C24A A52U | 0.632
C24U C57A | 0.309

Variant | self-cleavage
G25A U55A | 0.222
A23U C35A | 0.395
G25A C57G | 0.129
C24G G48C | 0.449
C24G G48A | 0.554
A23U G31A | 0.977
A23U A59C | 0.888
A23U A59U | 0.969
C24U U67A | 0.862
G25A U61A | 0.173
C24U C39U | 0.549
C24U C39A | 0.315
C24U C39G | 0.619
C24U U69C | 1.02
G25C U26A | 0.252
G25C U26G | 0.176
G25C U26C | 0.319
G25A U49A | 0.155
C24G U26A | 0.206
C24G U26G | 0.344
G25U C27U | 0.164
G25U C27A | 0.213
A23U C45G | 1
A23U C45A | 0.997

Variant | self-cleavage
A23U U69G | 1.04
A23U C34U | 1.01
A23G G48A | 1
A23U G48C | 1.06
G25C C57U | 0.143
G25C C57G | 0.141
G25C U36A | 0.201
G25C U36C | 0.24
G25C G58A | 0.212
G25C G58U | 0.134
C24G U62C | 0.148
C24U C63A | 0.391
C24U C63U | 0.719
G25A C66G | 0.223
C24G U55C | 0.292
C24G C54U | 0.602
A23G G31A | 0.781
A23G G31U | 0.583
C24A A51U | 0.782
C24A C63G | 0.392
G25U C32U | 0.228
G25U C32A | 0.162
C24G U49G | 0.565
C24G U49A | 0.59

Variant | self-cleavage
C24G G41U | 0.207
C24G G41A | 0.247
G25C C29A | 0.143
C24A U62G | 0.425
A23U C32A | 0.893
C24A G58C | 0.509
C24G U67C | 0.522
C24G U67G | 0.508
C24G C33A | 0.206
C24G C33G | 0.201
C24G U43G | 0.249
C24G C29G | 0.194
C24G C29U | 0.0935
C24U G31C | 0.0935
A23G G50A | 0.971
A23G G50U | 0.971
C24U G47C | 0.915
A23U U62C | 0.885
A23U U62G | 0.894
G25C C27A | 0.146
G25A U67A | 0.21
G25C C45A | 0.204
C24A U43C | 0.631
A23G G25C | 0.169

Variant | self-cleavage
G25A U69G | 0.327
C24U C35A | 0.17
C24U C35G | 0.202
C24A U36C | 0.27
G25A C34G | 0.19
G25C A60U | 0.114
G25C G56C | 0.164
G25C G56U | 0.256
G25U U43A | 0.0919
G25U U43C | 0.122
G25U U26G | 0.0885
G25U C34A | 0.153
A23U C24U | 0.924
A23U C24G | 0.556
A23G A59G | 1.01
G25U G65U | 0.187
G25U G65A | 0.184
G25C G50C | 0.179
A23U G37A | 0.384
A23U G37U | 0.347
A23U G37C | 0.149
C24U G41C | 0.303
G25U C63G | 0.175
G25C U53A | 0.125

Variant | self-cleavage
G25A U46G | 0.174
C24U C27A | 0.229
G25C U69A | 0.221
G25C U69G | 0.309
A23G G28A | 0.136
A23G G28C | 0.13
G25A G30U | 0.209
G25U U36G | 0.155
G25C C33G | 0.235
C24G G65C | 0.242
C24G G65U | 0.243
A23G U64G | 0.738
A23G U64C | 0.777
A23U C33U | 0.998
G25A U26A | 0.186
G25A C63A | 0.104
G25A C63G | 0.185
C24G A52C | 0.391
C24G A52U | 0.409
G25A U44C | 0.0881
A23G C29U | 0.217
A23U G47C | 0.999
